The record followed here is the supplement of paper PMC9112550, “Optimization of the antimicrobial peptide Bac7 by deep mutational scanning” (BMC Biology, 2022).
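Note: peptides expressed intracellularly from a pBAD plasmid library in pooled LB shake-flask culture, induced with 0.3% L-arabinose, DNA abundance read by NGS, three biological replicates, DESeq2 with apeglm shrinkage.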

This series relates to Escherichia coli TOP10. As to the kind of experiment: shrunken log2 fold change of peptide-encoding DNA abundance (4.5 h post-induction vs induction); higher = less antimicrobial activity (less host growth inhibition). The note with it: time post-induction: 4.5 h; library: site-saturation at positions 5, 18, 19, 20.
With RRIRTRPPRLPRPRPRPDDWPRP, the “shrunken log2 fold change” value is 0.276. To RRIRQRPPRLPRPRPRPTAHPRP belongs -0.0756; to RRIRERPPRLPRPRPRPENFPRP, -0.195. As to RRIRWRPPRLPRPRPRPLEGPRP, the “shrunken log2 fold change” value was -0.158.

As to RRIRKRPPRLPRPRPRPYKYPRP, the “shrunken log2 fold change” value is -0.00882. For RRIRMRPPRLPRPRPRPATMPRP, the “shrunken log2 fold change” value is 0.256.

Consider RRIRHRPPRLPRPRPRPYQSPRP, for which the “shrunken log2 fold change” value was determined as 0.0306. In the case of RRIRPRPPRLPRPRPRPCLRPRP, the “shrunken log2 fold change” value was -0.183. To RRIRLRPPRLPRPRPRPMMVPRP belongs -0.145; to RRIRHRPPRLPRPRPRPMCCPRP, 0.101.

Take RRIRHRPPRLPRPRPRPILHPRP: the “shrunken log2 fold change” value was -0.0471. As for RRIRCRPPRLPRPRPRPICPPRP, the figure is -0.148; as for RRIRIRPPRLPRPRPRPEDMPRP, 0.0397. As for RRIRQRPPRLPRPRPRPLTPPRP, the figure is 0.31; as for RRIRWRPPRLPRPRPRPGLAPRP, 0.505.

For RRIRDRPPRLPRPRPRPEYCPRP, the “shrunken log2 fold change” value was -0.0172.

Consider RRIRFRPPRLPRPRPRPFIMPRP, for which the “shrunken log2 fold change” value is -0.655. To RRIRLRPPRLPRPRPRPVSFPRP belongs 0.0353; to RRIRWRPPRLPRPRPRPTQMPRP, 0.59; to RRIRDRPPRLPRPRPRPNWSPRP, -0.0955. As for RRIRMRPPRLPRPRPRPKFQPRP, the figure is 0.549. On to RRIRCRPPRLPRPRPRPDKMPRP, for which the “shrunken log2 fold change” value was -0.156. As for RRIRMRPPRLPRPRPRPPREPRP, the “shrunken log2 fold change” value worked out at 1.19. To RRIRDRPPRLPRPRPRPHNNPRP belongs -0.604; to RRIRGRPPRLPRPRPRPITCPRP, -0.00623.

RRIRQRPPRLPRPRPRPEPAPRP: the “shrunken log2 fold change” value was 0.789. To RRIRLRPPRLPRPRPRPFHTPRP belongs -0.00564.

Consider RRIRQRPPRLPRPRPRPCRMPRP, for which the “shrunken log2 fold change” value was -0.126. On to RRIRFRPPRLPRPRPRPQTWPRP, for which the “shrunken log2 fold change” value is -0.743. For RRIRARPPRLPRPRPRPHIGPRP, the “shrunken log2 fold change” value was -0.175. As for RRIRLRPPRLPRPRPRPCNFPRP, the figure is -0.0369; as for RRIRPRPPRLPRPRPRPFAMPRP, 0.0938. In the case of RRIRWRPPRLPRPRPRPSAQPRP, the “shrunken log2 fold change” value turned out to be 0.422. As for RRIRCRPPRLPRPRPRPNWCPRP, the figure is -0.0555. Consider RRIRARPPRLPRPRPRPLFRPRP, for which the “shrunken log2 fold change” value came out at 0.881. Take RRIRERPPRLPRPRPRPDWSPRP: the “shrunken log2 fold change” value was -0.0645.

As for RRIRMRPPRLPRPRPRPAFPPRP, the “shrunken log2 fold change” value is -0.104.

Consider RRIRARPPRLPRPRPRPCICPRP, for which the “shrunken log2 fold change” value is -0.0352. As for RRIRARPPRLPRPRPRPWDIPRP, the figure is 0.173; as for RRIRWRPPRLPRPRPRPFLVPRP, -0.293.

Consider RRIRNRPPRLPRPRPRPVCSPRP, for which the “shrunken log2 fold change” value was -0.19. To RRIRGRPPRLPRPRPRPPPMPRP belongs 1.19; to RRIRIRPPRLPRPRPRPNGKPRP, -0.229. To RRIRGRPPRLPRPRPRPFQYPRP belongs 0.105; to RRIRKRPPRLPRPRPRPMMTPRP, 0.452. As for RRIRTRPPRLPRPRPRPKVQPRP, the figure is -0.0279; as for RRIRIRPPRLPRPRPRPNDTPRP, -1.01. Consider RRIRARPPRLPRPRPRPIQGPRP, for which the “shrunken log2 fold change” value came to 0.0518. As to RRIRMRPPRLPRPRPRPNFDPRP, the “shrunken log2 fold change” value stood at 0.622.

Consider RRIRGRPPRLPRPRPRPASPPRP, for which the “shrunken log2 fold change” value turned out to be 0.323.

Take RRIRFRPPRLPRPRPRPYYTPRP: the “shrunken log2 fold change” value is -0.369.

Take RRIRNRPPRLPRPRPRPRYFPRP: the “shrunken log2 fold change” value is -0.342.

Consider RRIRRRPPRLPRPRPRPDELPRP, for which the “shrunken log2 fold change” value is 0.614.

Regarding RRIRYRPPRLPRPRPRPLLFPRP, the “shrunken log2 fold change” value is -0.614. On to RRIRMRPPRLPRPRPRPYNAPRP, for which the “shrunken log2 fold change” value is -0.439. As for RRIRIRPPRLPRPRPRPNMCPRP, the figure is 0.0488; as for RRIRPRPPRLPRPRPRPYKGPRP, -0.437; as for RRIRSRPPRLPRPRPRPGWAPRP, 0.706. As for RRIRMRPPRLPRPRPRPCKMPRP, the figure is 0.0367; as for RRIRTRPPRLPRPRPRPACEPRP, 0.0463. As for RRIRPRPPRLPRPRPRPPKRPRP, the figure is 0.496; as for RRIRWRPPRLPRPRPRPCFYPRP, -0.249; as for RRIRFRPPRLPRPRPRPHHWPRP, -0.499. As to RRIRRRPPRLPRPRPRPRCTPRP, the “shrunken log2 fold change” value came to 0.0974.

On to RRIRFRPPRLPRPRPRPGEWPRP, for which the “shrunken log2 fold change” value was -0.0225. As for RRIRTRPPRLPRPRPRPFVNPRP, the figure is -0.223; as for RRIRKRPPRLPRPRPRPHYPPRP, -0.16. To RRIRMRPPRLPRPRPRPSNSPRP belongs -0.192; to RRIRTRPPRLPRPRPRPYQAPRP, -0.206; to RRIRGRPPRLPRPRPRPINGPRP, 0.1.

As for RRIRLRPPRLPRPRPRPMRGPRP, the “shrunken log2 fold change” value stood at 0.839. Turning to RRIRNRPPRLPRPRPRPYRWPRP, the “shrunken log2 fold change” value is -0.147. With RRIRTRPPRLPRPRPRPLCCPRP, the “shrunken log2 fold change” value is 1. As for RRIRYRPPRLPRPRPRPLLIPRP, the figure is -0.798; as for RRIRWRPPRLPRPRPRPKQHPRP, 0.299.

In the case of RRIRCRPPRLPRPRPRPFFWPRP, the “shrunken log2 fold change” value was 0.359.

For RRIRSRPPRLPRPRPRPYWCPRP, the “shrunken log2 fold change” value was -0.161.

For RRIRVRPPRLPRPRPRPSDWPRP, the “shrunken log2 fold change” value was -0.102. As for RRIRNRPPRLPRPRPRPHQTPRP, the figure is -0.0525; as for RRIRPRPPRLPRPRPRPDRCPRP, 0.584; as for RRIRIRPPRLPRPRPRPHHAPRP, 0.0597.

In the case of RRIRIRPPRLPRPRPRPNTMPRP, the “shrunken log2 fold change” value was -0.264.

As for RRIRFRPPRLPRPRPRPTINPRP, the “shrunken log2 fold change” value is -0.508. To RRIRWRPPRLPRPRPRPKWRPRP belongs 0.428; to RRIRFRPPRLPRPRPRPWPFPRP, -0.455; to RRIRHRPPRLPRPRPRPCEAPRP, -0.136. To RRIRVRPPRLPRPRPRPREPPRP belongs 0.947; to RRIRIRPPRLPRPRPRPPRSPRP, 0.272; to RRIRDRPPRLPRPRPRPRHSPRP, -0.043. As for RRIRKRPPRLPRPRPRPCGKPRP, the figure is 0.00875; as for RRIRDRPPRLPRPRPRPGWAPRP, 0.718; as for RRIRFRPPRLPRPRPRPAEDPRP, 0.0423.

As to RRIRFRPPRLPRPRPRPVADPRP, the “shrunken log2 fold change” value is -0.00475. To RRIRIRPPRLPRPRPRPVTDPRP belongs -0.00257; to RRIRCRPPRLPRPRPRPLRQPRP, 0.713; to RRIRYRPPRLPRPRPRPRAWPRP, -0.214.

As to RRIRMRPPRLPRPRPRPDWRPRP, the “shrunken log2 fold change” value came to 0.276. Take RRIRVRPPRLPRPRPRPVVRPRP: the “shrunken log2 fold change” value amounted to 0.129. As for RRIRKRPPRLPRPRPRPDWSPRP, the figure is 0.0357.

RRIRVRPPRLPRPRPRPLSFPRP: the “shrunken log2 fold change” value was -0.426. As for RRIRIRPPRLPRPRPRPPQVPRP, the figure is 0.328; as for RRIRRRPPRLPRPRPRPALQPRP, 1.92. As for RRIRCRPPRLPRPRPRPIPYPRP, the figure is -0.0796. As for RRIRRRPPRLPRPRPRPECGPRP, the figure is 0.938; as for RRIRHRPPRLPRPRPRPYENPRP, -0.0765; as for RRIRMRPPRLPRPRPRPTQHPRP, 0.717.

Consider RRIRWRPPRLPRPRPRPQANPRP, for which the “shrunken log2 fold change” value was determined as 0.395.

As for RRIRQRPPRLPRPRPRPFAEPRP, the “shrunken log2 fold change” value was -0.00183. For the sequence RRIRVRPPRLPRPRPRPSMYPRP, the “shrunken log2 fold change” value was 0.531. To RRIRQRPPRLPRPRPRPVCRPRP belongs 0.198; to RRIRIRPPRLPRPRPRPVIYPRP, -0.695.

Regarding RRIRYRPPRLPRPRPRPVWTPRP, the “shrunken log2 fold change” value turned out to be 0.0188. To RRIRCRPPRLPRPRPRPQHSPRP belongs -0.764. Turning to RRIRERPPRLPRPRPRPINAPRP, the “shrunken log2 fold change” value was -0.129. As to RRIRQRPPRLPRPRPRPVVVPRP, the “shrunken log2 fold change” value is -0.0728. As for RRIRNRPPRLPRPRPRPHTQPRP, the figure is -0.328; as for RRIRERPPRLPRPRPRPLIGPRP, -0.0644; as for RRIRMRPPRLPRPRPRPCATPRP, 2.58. As for RRIRDRPPRLPRPRPRPLYEPRP, the “shrunken log2 fold change” value was -0.0254.

On to RRIRERPPRLPRPRPRPAHKPRP, for which the “shrunken log2 fold change” value was -0.154. To RRIRSRPPRLPRPRPRPLSGPRP belongs -0.0801. To RRIRWRPPRLPRPRPRPYMLPRP belongs -0.298. As for RRIRIRPPRLPRPRPRPLHGPRP, the figure is -0.308; as for RRIRLRPPRLPRPRPRPWSRPRP, -0.264. With RRIRKRPPRLPRPRPRPFDNPRP, the “shrunken log2 fold change” value worked out at 0.057.
